One molecule from patent US20130095127A1, “METHODS OF INHIBITING INFLAMMATION AND INFLAMMATORY DISEASES USING Gal-3BP (BTBD17B, LGALS3BP, GALECTIN-3 BINDING PROTEIN, MAC-2 BINDING PROTEIN)” (LA JOLLA INSTITUTE FOR ALLERGY AND IMMUNOLOGY, priority 2010, published 2013) can be followed below.

Assay [1] has as its system NFAT. Description: Gal-3BP-induced IL-2 secretion with or without NFAT inhibitors (ELISA). It counts as cell-based, human. The note with it: Gal-3BP 10 μg/ml for the times indicated; FIG. 6A. As for the experimental part: (§1) Measurement of cytokines was carried out with Ready set Go ELISA kits (eBioscience).
To determine if NFAT is required for Gal-3BP-induced IL-2 secretion, human blood monocytes were incubated with M-CSF (100 ng/ml) for 6 days to produce monocyte-derived macrophages (M0). […] Macrophages were alternatively treated with Gal-3BP (10 μg/ml) in the absence or presence of CSA (1 μM) or FK506 (1 μM), another known NFAT inhibitor (FIG. 6B). […] (P values are ***0.0004, **0.006 and *0.034)

Another assay concerns human macrophages. Description: Gal-3BP-induced IL-2 secretion in monocyte-derived macrophages (ELISA). It counts as cell-based. As for the experimental part:
(§2) Monocytes were isolated from peripheral blood of human healthy donors. Monocyte purity as assessed by flow cytometry for CD14 (clone HCD14, BioLegend, San Diego, Calif.) was routinely >97%. Monocytes were cultured for six days with M-CSF (100 ng/ml, Peprotech, Rocky Hill, N.J.) in macrophage serum-free medium (Gibco, Carlsbad, Calif.) supplemented with nutridoma SP (Roche, Nutley, N.J.), and penicillin/streptomycin (Sigma Aldrich).
as §1
Human blood monocytes were incubated with M-CSF (100 ng/ml) for 6 days to produce monocyte-derived macrophages (MO). These macrophages were incubated with interferon-γ (250 u/ml) for 1 day to produce M1 macrophages or with IL-4 (20 units/ml) to produce M2 macrophages or with PGE-2 (1 μM) to produce Mreg macrophages and then challenged with LPS (10 ng/ml) for another day or with Gal-3BP (10 μg/ml over 48 h).
Human blood monocytes were cultured as in (A) (*P=0.05, ***P<0.0001). These macrophages were incubated with Gal-3BP (0.1,1 and 10 μug/ml) for 6 hours and IL-2 was measured by ELISA. […] Human blood monocytes were cultured as in (A). These macrophages were incubated with Gal-3BP (10 μg/ml) or LPS (10 ng/ml) for 6 hours (***P<0.0001).

In assay [2] the test system is microRNAs known to be transcriptional targets of NFAT. Description: microRNA expression in M0 macrophages after Gal-3BP (miRCURY LNA Array). The following applies: Gal-3BP 10 ug/ml; human M0 macrophages; fold-change screen; FIG. 7. It counts as cell-based. As for the experimental part:
The targets of NFAT signaling are largely cytokines, growth factors and their receptors, proteins involved in cell-cell interactions, as well as microRNAs (Crabtree and Schreiber, Cell, 138: 210 (2009)). To evaluate Gal-3BP's ability to induce NFAT signaling, microRNA expression in human M0 macrophages following Gal-3BP treatment was measured.
Human M0 macrophages were challenged with Gal-3BP (10 ug/ml), small RNAs were isolated and screened for microRNA expression using miRCURY™ Power Labeling Kit and hybridized on the miRCURY™ LNA Array (v.11.0). The samples were hybridized using a hybridization station and scanned using the Axon GenePix 4000B microarray scanner. GenePix pro V6.0 is used to extract the raw intensity of the image. Differentially expressed microRNAs were identified through fold-change screen. […] These microRNAs reflect increased NFAT activity via Gal-3BP.

Assay [3] relates to human monocyte-derived macrophages (M0). Description: Macrophage phenotype: IL-10, IL-2, IL-12 and IL-6 production (ELISA). Type of assay: cell-based. The note with it: Gal-3BP 10 μg/ml over 48 h. As to the method: as §2, §1
Human blood monocytes were incubated with M-CSF (100 ng/ml) for 6 days to produce monocyte-derived macrophages (M0). These macrophages were incubated with interferon-γ (250 units/ml) for 1 day to produce M1 macrophages or with IL-4 (20 units/ml) to produce M2 macrophages or with PGE-2 (1 μM) to produce Mreg macrophages and then challenged with LPS (10 ng/ml) for another day or with Gal-3BP (10 μg/ml over 48 h). […] P values are indicated on the graphs.

The subject of assay [4] is intracellular free Ca^2+ in human M0 macrophages. Description: Ca2+ mobilization in M0 macrophages, fluo-4 fluorescence microscopy. Type of assay: cell-based. The following applies: Gal-3BP 10 ug/ml; M0 macrophages loaded with 1 μM fluo-4; FIG. 4. As to the method:
Human blood monocytes were cultured as described in Example 2 to produce MO macrophages, incubated with 1 μM fluo-4 for 30 minutes to quantify intracellular free Ca^2+ concentrations, and then triggered with Gal-3BP (10 ug/ml) with or without the PLC-γ inhibitor U73122 (10 nM). Thapsigargin (100 nM) served as positive control. Ca^2+ mobilization was assayed by fluorescence microscopy as previously described (Zanoni et al., Nature 460:264 (2009)). Each line is a measurement from a single cell (FIG. 4).

Assay [5] deals with NFAT. Description: NFAT translocation to nucleus, immunofluorescence microscopy. It counts as cell-based, human. The following applies: Gal-3BP 10 μg/ml for 2 hours; M0 macrophages; FIG. 5. As to the method: Cells were fixed in formaldehyde 4%, 10-20 min, room temperature. Cells were then permeabilized in chilled methanol, 5-10 min, and −20° C. in and washed extensively with PBS, then blocked using 5% donkey serum in PBS. Primary antibody (Rabbit anti-NFATc2/NFATp (1:50, ImmunoGlobe), diluted in PBS with goat serum 10%) was applied over night in 4° C. Biotin anti-rabbit antibodies (1:200 Molecular Probes) were incubated for 1 hour. Streptavidin, (Alexa Fluor® 594 conjugate*2 mg/mL*Cat. No. S-32356) detection 1:1000 for 1 hour. DAPI (1:1,000, Sigma Aldrich) for 5 min at room temperature.
These macrophages were then incubated with Gal-3BP (10 μg/ml for 2 hours). Both samples were stained with DAPI (nuclear stain) and an antibody to NFAT (anti-NFAT c2/p IG 209, affinity purified rabbit antibody, ImmunoGlobe). Nuclear translocation was assessed by immunofluorescence microscopy (FIG. 5).

B1: Gal-3BP: Galectin-3 binding protein, a secreted 585 (murine 577) amino acid protein; human sequence SEQ ID NO:1 (protein, listed as Homo sapiens)
chain: MTPPRLFWVWLLVAGTQGVNDGDMRLADGGATNQGRVEIFYRGQWGTVCDNLWDLTDASVVCRALGFENATQALGRAAFGQGSGPIMLDEVQCTGTEASLADCKSLGWLKSNCRHERDAGVVCTNETRSTHTLDLSRELSEALGQIFDSQRGCDLSISVNVQGEDALGFCGHTVILTANLEAQALWKEPGSNVTMSVDAECVPMVRDLLRYFYSRRIDITLSSVKCFHKLASAYGARQLQGYCASLFAILLPQDPSFQMPLDLYAYAVATGDALLEKLCLQFLAWNFEALTQAEAWPSVPTDLLQLLLPRSDLAVPSELALLKAVDTWSWGERASHEEVEGLVEKIRFPMMLPEELFELQFNLSLYWSHEALFQKKTLQALEFHTVPFQLLARYKGLNLTEDTYKPRIYTSPTWSAFVTDSSWSARKSQLVYQSRRGPLVKYSSDYFQAPSDYRYYPYQSFQTPQHPSFLFQDKRVSWSLVYLPTIQSCWNYGFSCSSDELPVLGLTKSGGSDRTIAYENKALMLCEGLFVADVTDFEGWKAAIPSALDTNSSKSTSSFPCPAGHFNGFRTVIRPFYLTNSSGVD
As for B1, in the assay on NFAT [1], the “IL-2 secretion over time” value was “induced secretion of IL-2”. In addition, the IL-2 production result in the assay on human macrophages (Gal-3BP 10 μg/ml or LPS 10 ng/ml for 6 hours, FIG. 1C, P<0.0001) is “induces IL-2 production”; in the assay on human macrophages (Gal-3BP 10 μg/ml over 48 h, standard ELISA, FIG. 1A, P=0.0003), “induced production of IL-2”; in assay [3] (FIG. 2B), “production of IL-2”. The “IL-2 production, concentration dependence” value in the assay with human macrophages (Gal-3BP 0.1, 1 and 10 μg/ml for 6 hours, ELISA, FIG. 1B) is given as “concentration dependently induces IL-2 production”. The “Number of eight NFAT-target microRNAs significantly up-regulated” value in assay [2] is “five were significantly up-regulated”. Moreover, the IL-10 production result in assay [3] (FIG. 2A) is reported as “moderate IL-10”. In addition, the IL-12 production entry in assay [3] (FIG. 2C) is on record as “no IL-12”. Besides, the IL-6 production entry in assay [3] (FIG. 2D) is reported as “little IL-6”. In assay [4], the “Ca^2+ mobilization” value is “triggers Ca^2+ mobilization”. The “NFAT translocation to nucleus” value with NFAT [5] is listed as “induces NFAT translocation to nucleus”.
